According to the supplement of paper PMC10567573:

B1: FBF1 (parent)
chain: YQRPQDSEDMWGDEDFTFGAYQPT

Variants of: B1
Assay: protein stability index of a GFP-peptide fusion (GPS, HEK-293T) (PSI 1-6); higher = more stable
Conditions: c terminus: a fixed tail appended
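Note: lentivirally expressed fusions sorted by FACS into six bins by GFP to DsRed ratio, PSI derived from sequencing read proportions per bin multiplied by bin number.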

Protein stability index of substitutions, site by site:
T24: L 2.23; Q 2.68; I 2.24; A 2.79; Y 2.44; E 2.58; C 2.83; V 2.63; N 3.02; K 3.02; W 1.99; S 2.67; D 2.88; H 2.27
A20: F 2.38; P 2.92; Y 2.79; E 3.29; G 2.91; R 2.18; L 2.76; S 2.69; I 2.11; H 2.95; K 2.94; W 2.04; C 2.18
E14: N 1.8; D 2.58; Y 2.27; Q 1.94; A 1.67; R 2.05; H 2.84; K 1.46; P 2.03; W 2.21; V 2.36; I 1.82; F 1.78; M 1.26
S7: H 2.58; D 3.68; W 1.73; E 3.29; T 2.35; A 2.68; Q 2.9; L 2.87; I 2.99; M 2.37; Y 1.74; P 3.13
Y21: L 3.35; T 3.1; E 3.75; Q 3.39; C 3.17; S 3.51; A 3.51; W 2.04; M 2.78; R 3.06; D 3.73; I 3.16; F 2.98; G 3.46; P 3.56; V 2.92; K 3.44
W11: Y 3.74; I 4.19; E 4.5; C 4.55; P 4.87; Q 4.78; G 4.67; L 4.13; M 4.13; R 4.43; T 4.33; N 4.44; A 4.45; D 4.54; S 4.79; H 4.54
D15: L 2.04; Y 2.23; Q 2.41; H 2.05; R 2.15; C 1.77; F 1.52; M 1.9; T 2.43; A 2.31; V 1.86; W 1.78; P 2.45; E 2.75; K 1.73
F16: V 2.88; D 3.48; T 2.8; C 2.85; L 2.71; M 3.17; R 2.73; N 3.61; A 2.9; S 3.29; I 3.14; W 2.73; Y 2.83; P 2.71; G 3.23
Q5: M 2.44; C 2.26; H 2.44; W 2.03; Y 2.57; T 3.18; A 2.49; I 2.26; G 2.99; R 2.16; S 2.98; F 2.64; P 2.52
T17: E 3.04; L 2.31; H 2.86; G 3.01; S 2.65; V 3.07; D 3.37; M 2.59; K 2.68; F 2.53; N 3.04; I 2.36; Y 2.1
G19: S 3.18; C 2.53; V 2.8; H 2.67; I 2.64; M 2.88; Y 2.35; F 2.56; R 2.47; L 2.33; K 2.51; N 3.1; A 2.59; P 2.77
R3: Y 3.09; W 2.82; G 3.4; C 3.12; K 3.64; D 4.36; I 2.87; M 3.2; H 3.49; A 3.44; Q 4.01; P 3.87; V 3.5
P23: M 2.26; L 2.87; N 3.1; H 3.32; F 2.74; E 3.36; R 2.67; D 3.06; Q 3.06; W 2.19; I 2.64; A 2.47
Q2: H 2.21; K 3.81; A 2.79; G 3.76; S 3.53; Y 3.65; W 2.38; E 4.26; M 3.56; C 2.7; D 4.81; P 3.05
P4: V 2.49; H 2.97; Y 3.04; A 2.45; K 2.29; N 2.26; I 2.68; T 2.57; G 2.69; Q 2.54; W 2.09; F 2.54; L 2.74; S 2.54
G12: P 3.79; K 2.37; D 4.15; C 2.28; T 2.55; M 3.12; W 2.71; F 2.41; E 3.71; S 3.13; H 2.85; N 3.17; Q 3.13; Y 2.55; V 2.48
D9: Y 1.87; I 2.13; W 2.01; C 1.55; L 1.44; V 1.66; H 2.03; R 2.34; S 2.11; P 2.02; N 2.48; G 2.47; E 3.21; F 1.92; Q 2.23
E8: C 1.99; G 1.98; N 2; K 1.78; W 1.58; Y 2.31; M 2.42; P 1.65; A 1.9; V 1.7; R 1.58
M10: S 3.5; Q 3.71; V 2.75; G 3.96; D 4.06; P 3.34; F 1.86; A 4.18; W 2.81; H 3.47; I 2.39; Y 3.11; L 2.25; K 3.72
Y1: G 4.79; S 4.52; N 4.62; V 3.92; C 3.54; L 3.87; T 4.66; I 3.95; E 4.84; Q 4.23; F 2.58
Q22: L 2.77; W 1.94; H 2.43; S 3.03; K 1.95; M 2.22; A 2.77; N 2.57; C 2.6; G 2.86; E 3.19; F 2.38; R 2.65; T 2.28; I 2.45; P 3.19; Y 3.22
F18: C 3.19; G 3.6; N 3.93; L 2.65; P 3.62; I 3.06; Y 3.02; K 3.6; A 3.43; E 3.62; R 3.61; H 3.04; V 3.8; D 3.9; Q 3.35; S 3.98
D13: S 1.85; P 1.73; Q 1.79; C 1.74; L 2.45; N 2.07; W 1.53; A 2.1; H 1.76; R 2.89; F 2.18; T 1.77; G 2.28; K 2.52
D6: A 2.05; C 2.06; T 2.53; G 1.77; V 2.12; F 1.68; R 2.04; Y 2.06; I 1.98; E 2.59; S 2.24; Q 2.26; K 1.94; L 2.17
